From patent US20210221894A1 (DRAGONFLY THERAPEUTICS, published 2021)

Key:
[1] = molecular target: T1, recombinant His-tagged EGF4-6 domains of human DLL3 (human, UniProt Q9NYJ7 353-492, limits assumed); assay: SPR (Biacore 8K), 37 C, antibody captured on anti-mouse Fc, DLL3 domain construct injected, 1:1 fit
T1 sequence: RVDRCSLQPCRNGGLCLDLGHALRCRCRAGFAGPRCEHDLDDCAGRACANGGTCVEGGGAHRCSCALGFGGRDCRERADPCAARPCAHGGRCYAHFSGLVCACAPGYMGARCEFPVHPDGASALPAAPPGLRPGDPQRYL
Excerpt: (§1) The binding kinetics of different anti-DLL3 antibodies to recombinant proteins of different domains of human DLL3 were studied by surface plasmon resonance (SPR) using a Biacore™ 8K instrument. These anti-DLL3 antibodies were produced from mouse hybridomas, and each included a heavy chain variable region and light chain variable region described herein. Briefly, antibodies recognizing human IgG Fc and antibodies recognizing mouse IgG Fc were immobilized on different channels of a Biacore™ 8K chip to allow simultaneous analysis of human and murine anti-DLL3 antibodies. Murine anti-DLL3 antibodies were captured on the anti-mouse Fc channel of the Biacore chip. The human anti-DLL3 antibody from Stemcentrx (San Francisco, Calif.) was used as a control and was captured onto anti-human Fc channel of the Biacore™ chip. Different concentrations of DLL3 ECD, DLL3 N-terminal domain, EGF2-6, EGF3-6, EGF4-6, or EGF5-6 domains of DLL3 were injected. Experiments were performed at 37° C. Biacore™ 8K evaluation software was used for all data analysis. To obtain kinetic rate constants double-referenced data were fit to a 1:1 interaction model using Biacore™ 8K Evaluation software (GE Healthcare, Marlborough, Mass.). The equilibrium binding constant KD was determined by the ratio of binding rate constants kd/kₐ.
(§2) The binding epitope on DLL3 by the anti-DLL3 antibody which included a heavy chain variable region and light chain variable region of clone 5E7 (see Table 2) was identified by SPR analysis at 37° C.

[2] = molecular target: T2, recombinant His-tagged EGF2-6 domains of human DLL3 (human, UniProt Q9NYJ7 274-492, limits assumed); assay: as above
T2 sequence: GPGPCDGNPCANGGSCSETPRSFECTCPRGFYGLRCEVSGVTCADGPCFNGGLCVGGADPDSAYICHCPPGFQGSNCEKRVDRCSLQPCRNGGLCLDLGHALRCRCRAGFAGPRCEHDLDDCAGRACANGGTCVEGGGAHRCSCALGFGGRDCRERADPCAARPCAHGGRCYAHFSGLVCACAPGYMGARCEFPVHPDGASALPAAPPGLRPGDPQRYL
Excerpt: as §1, §2

[3] = molecular target: T3, recombinant His-tagged EGF3-6 domains of human DLL3 (human, UniProt Q9NYJ7 312-492, limits assumed); assay: as above
T3 sequence: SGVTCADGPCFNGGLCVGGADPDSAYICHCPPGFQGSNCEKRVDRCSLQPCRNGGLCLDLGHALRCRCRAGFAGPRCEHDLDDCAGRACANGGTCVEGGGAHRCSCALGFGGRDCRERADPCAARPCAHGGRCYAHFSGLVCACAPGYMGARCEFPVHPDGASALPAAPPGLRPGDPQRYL
Excerpt: as §1, §2

[4] = molecular target: T4, recombinant His-tagged N-terminal domain of human DLL3 (human, UniProt Q9NYJ7 27-175, limits assumed); assay: SPR (Biacore 8K), 37 C, antibody captured on anti-mouse Fc
T4 construct: also called DLL3 N-terminal domain
T4 sequence: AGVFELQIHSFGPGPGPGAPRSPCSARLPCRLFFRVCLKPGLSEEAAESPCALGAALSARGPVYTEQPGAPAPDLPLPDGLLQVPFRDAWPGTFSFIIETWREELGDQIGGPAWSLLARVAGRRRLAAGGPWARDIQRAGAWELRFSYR
Excerpt: as §1, with “kd/kₐ. […]” for “kd/kₐ.”

[5] = molecular target: T5, recombinant His-tagged EGF5-6 domains of human DLL3 (human, UniProt Q9NYJ7 391-492, limits assumed); assay: as above
T5 sequence: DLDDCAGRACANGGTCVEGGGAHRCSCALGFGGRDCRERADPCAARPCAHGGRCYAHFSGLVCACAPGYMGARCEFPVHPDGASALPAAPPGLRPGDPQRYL
Excerpt: as §1, with “kd/kₐ. […]” for “kd/kₐ.”

Kd [1]: 1120 pM | koff [1]: 0.00061 s⁻¹ | kon [1]: 546000 M⁻¹ s⁻¹ | Kd [2]: 669 pM | koff [2]: 0.000382 s⁻¹ | kon [2]: 570000 M⁻¹ s⁻¹ | Kd [3]: 184 pM | koff [3]: 0.000264 s⁻¹ | kon [3]: 1.45e+06 M⁻¹ s⁻¹ | binding result [4]: no binding | binding result [5]: no binding
B1: murine anti-DLL3 antibody clone 5E7 (antibody, V domains shown)
VH: EVQLQQSGAELVRPGASVKLSCTASGFNIKDDYIHWVKQWPEQGLEWIGWIDSENGDTEYASKFQGKATMTADTSSNTAYLQLSGLTSEDTAVYYCTTSSYYSYDLFVYWGQGTLVTVSA
VL: DVLMTQTPLTLSVPIGQPASISCKSSQSLLHSNGKTYLNWLLQRPGQSPKLLIYLVSKLESGVPDRFSGSGSGTDFTLKISRVEAEDLGVYYCLQTTHLYTFGGGTKLEIK
notes: Murine antibody produced from a mouse hybridoma, captured on anti-mouse Fc in SPR; also called m5E7; murine 5E7
